The nature of this data set: self-splicing fitness, log relative to wild type (ln ratio); higher = more splicing; Tetrahymena group I intron in knt gene, E. coli kanamycin selection, DiMSum; sequences stand for … in CUCUCU…GGAGGGAAAAGUUAUCAGGCAUGCACCUGGUAGCUAGUCUUUAAACCAAUAGAUUGCAUCGGUUUAAAAGGCAAGACCGUCAAAUUGCGGGAAAGGGGUCAACAGCCGUUCAGUACCAAGUCUCAGGGGAAACUUUGAGAUGGCCUUGCAAAGGGUAUGGUAAUAAGCUGACGGACAUGGUCCUAACCACGCAGCCAAGUCCUAAGUCAACAGAUCUUCUGUUGAUAUGGAUGCAGUUCACAGACUAAAUGUCGGUCGGGGAAGAUGUAUUCUUCUCAUAAGAUAUAGUCGGACCUCUCCUUAAUGGGAGCUAGCGGAUGAAGUGAUGCAACACUGGAGCCGCUGGGAACUAAUUUGUAUGCGAAAGUAUAUUGAUUAGUUUUGGAGUACUCGUGGUCG
A digest of the protocol:
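Six replicate transformations of E. coli BL21(DE3) with a pET-22b(+) library were grown overnight at 37°C or 30°C. The library randomised all eight P1ex-region intron nucleotides, the intron lying in the knt kanamycin-resistance gene, and plates were LB agar with or without 25 μg/mL kanamycin plus 100 μg/mL carbenicillin, 50 μM IPTG and 0.2% rhamnose. Pooled colonies were amplicon-sequenced on an Illumina HiSeq 2500, and fitness is the DiMSum error-weighted combination of wild-type-normalised replicate fold changes, kanamycin versus none.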

± gives the uncertainty stated by the source.

As for UGGUAGCAAUAUUACGCCUU, the “self-splicing fitness (ln)” value was -0.729 ± 0.15 (30 °C) and 0.426 ± 0.18 (37 °C).

As for UGGUAGCAAUAUUACGCUGC, the “self-splicing fitness (ln)” value is -2.89 ± 0.31 (30 °C) and -2.86 ± 0.4 (37 °C).

In the case of UGGUAGCAAUAUUACGGAGC, the “self-splicing fitness (ln)” value (37 °C) is -0.765 ± 0.31.

Regarding UGGUAGCAAUAUUACGGCCA, the “self-splicing fitness (ln)” value is -2.07 ± 0.3 (30 °C) and -1.94 ± 0.45 (37 °C).

With UGGUAGCAAUAUUACGGCCC, the “self-splicing fitness (ln)” value runs as follows: (30 °C) -0.562 ± 0.18; (37 °C) -0.000115 ± 0.21.

For the sequence UGGUAGCAAUAUUACGGCGG, the “self-splicing fitness (ln)” value is -0.708 ± 0.082 (30 °C) and -0.0108 ± 0.1 (37 °C).

For UGGUAGCAAUAUUACGGGGU, for the setting “30 °C”, the “self-splicing fitness (ln)” value is -3.24 ± 0.43.

As to UGGUAGCAAUAUUACGUGGU, the “self-splicing fitness (ln)” value was -4.36 ± 0.28 (30 °C) and -2.7 ± 0.36 (37 °C).

For UGGUAGCAAUAUUACGUUUA, the “self-splicing fitness (ln)” value reads like this: (30 °C) -1.58 ± 0.11; (37 °C) -0.847 ± 0.1.

Consider UGUAAGCAAUAUUACGACAU, for which the “self-splicing fitness (ln)” value is -1.44 ± 0.015 (30 °C) and -0.831 ± 0.034 (37 °C).

On to UGUAAGCAAUAUUACGACGA, for which the “self-splicing fitness (ln)” value by setting is: (30 °C) -0.272 ± 0.12; (37 °C) -0.249 ± 0.11.

With UGUAAGCAAUAUUACGAGGA, the “self-splicing fitness (ln)” value reads like this: (30 °C) -2.17 ± 0.36; (37 °C) -2.61 ± 0.34.

On to UGUAAGCAAUAUUACGAUAA, for which the “self-splicing fitness (ln)” value reads like this: (30 °C) -1.12 ± 0.1; (37 °C) 0.257 ± 0.13.

Take UGUAAGCAAUAUUACGAUCC: the “self-splicing fitness (ln)” value reads like this: (30 °C) -1.49 ± 0.34; (37 °C) -0.943 ± 0.42.

Consider UGUAAGCAAUAUUACGAUUC, for which the “self-splicing fitness (ln)” value (37 °C) is -2.35 ± 0.26.

Consider UGUAAGCAAUAUUACGCACU, for which the “self-splicing fitness (ln)” value (30 °C) is -0.554 ± 0.094 and the “self-splicing fitness (ln)” value (37 °C) is -0.349 ± 0.12.

Take UGUAAGCAAUAUUACGCCGA: the “self-splicing fitness (ln)” value is -1.5 ± 0.14 (30 °C) and -1.63 ± 0.18 (37 °C).

As for UGUAAGCAAUAUUACGCCUA, the “self-splicing fitness (ln)” value is, setting by setting: (30 °C) -0.337 ± 0.14; (37 °C) 0.331 ± 0.15.

Turning to UGUAAGCAAUAUUACGCGUG, the “self-splicing fitness (ln)” value (30 °C) is -0.994 ± 0.066 and the “self-splicing fitness (ln)” value (37 °C) amounted to 0.0779 ± 0.079.

Regarding UGUAAGCAAUAUUACGCUGA, the “self-splicing fitness (ln)” value is -3.08 ± 0.26 (30 °C) and -1.33 ± 0.16 (37 °C).

Regarding UGUAAGCAAUAUUACGGAUG, the “self-splicing fitness (ln)” value reads like this: (30 °C) -0.704 ± 0.07; (37 °C) -0.103 ± 0.095.

Consider UGUAAGCAAUAUUACGGAUU, for which the “self-splicing fitness (ln)” value by setting is: (30 °C) -2.59 ± 0.12; (37 °C) -1.09 ± 0.12.

Turning to UGUAAGCAAUAUUACGGCUC, the “self-splicing fitness (ln)” value was -1.94 ± 0.19 (30 °C) and -1.32 ± 0.29 (37 °C).

As for UGUAAGCAAUAUUACGUACU, the “self-splicing fitness (ln)” value reads like this: (30 °C) -0.07 ± 0.081; (37 °C) -0.136 ± 0.092.

Turning to UGUAAGCAAUAUUACGUAGC, under “37 °C”, the “self-splicing fitness (ln)” value was -1.96 ± 0.45.

Consider UGUAAGCAAUAUUACGUCGU, for which the “self-splicing fitness (ln)” value was -3.66 ± 0.24 (30 °C) and -1.97 ± 0.18 (37 °C).

For the sequence UGUAAGCAAUAUUACGUCUA, the “self-splicing fitness (ln)” value (30 °C) is -0.00173 ± 0.09 and the “self-splicing fitness (ln)” value (37 °C) was 0.151 ± 0.11.

Take UGUAAGCAAUAUUACGUCUU: the “self-splicing fitness (ln)” value runs as follows: (30 °C) -1.74 ± 0.093; (37 °C) -0.338 ± 0.11.

Consider UGUAAGCAAUAUUACGUGCA, for which the “self-splicing fitness (ln)” value runs as follows: (30 °C) -0.738 ± 0.12; (37 °C) -0.62 ± 0.11.

Turning to UGUAAGCAAUAUUACGUUUA, the “self-splicing fitness (ln)” value is, setting by setting: (30 °C) -0.814 ± 0.16; (37 °C) -1.51 ± 0.14.

As for UGUCAGCAAUAUUACGAAUC, the “self-splicing fitness (ln)” value is, setting by setting: (30 °C) -2.79 ± 0.28; (37 °C) -1.08 ± 0.22.

In the case of UGUCAGCAAUAUUACGAGAU, the “self-splicing fitness (ln)” value by setting is: (30 °C) -3.11 ± 0.22; (37 °C) -2.56 ± 0.27.

On to UGUCAGCAAUAUUACGCACA, for which the “self-splicing fitness (ln)” value reads like this: (30 °C) -0.467 ± 0.083; (37 °C) -0.355 ± 0.093.

Take UGUCAGCAAUAUUACGCCUG: the “self-splicing fitness (ln)” value by setting is: (30 °C) 0.351 ± 0.072; (37 °C) 0.582 ± 0.11.

For the sequence UGUCAGCAAUAUUACGCGGC, the “self-splicing fitness (ln)” value is, setting by setting: (30 °C) -3.06 ± 0.24; (37 °C) -2.09 ± 0.31.

UGUCAGCAAUAUUACGCGUA: the “self-splicing fitness (ln)” value (30 °C) is -0.0687 ± 0.063 and the “self-splicing fitness (ln)” value (37 °C) turned out to be 0.148 ± 0.073.

For UGUCAGCAAUAUUACGCUGU, the “self-splicing fitness (ln)” value was -3.1 ± 0.23 (30 °C) and -1.63 ± 0.19 (37 °C).

With UGUCAGCAAUAUUACGGAGA, the “self-splicing fitness (ln)” value is, setting by setting: (30 °C) -1.58 ± 0.1; (37 °C) -0.867 ± 0.091.

Take UGUCAGCAAUAUUACGGAUU: the “self-splicing fitness (ln)” value is -1.57 ± 0.083 (30 °C) and -0.507 ± 0.12 (37 °C).

For the origin of these results see the supplement of paper PMC7877785.
